B1: HA‐TAK1 [human] / Flag‐TRAF2 [not stated] (parent)
chain 1: MSTASAASSSSSSSAGEMIEAPSQVLNFEEIDYKEIEVEEVVGRGAFGVVCKAKWRAKDVAIKQIESESERKAFIVELRQLSRVNHPNIVKLYGACLNPVCLVMEYAEGGSLYNVLHGAEPLPYYTAAHAMSWCLQCSQGVAYLHSMQPKALIHRDLKPPNLLLVAGGTVLKICDFGTACDIQTHMTNNKGSAAWMAPEVFEGSNYSEKCDVFSWGIILWEVITRRKPFDEIGGPAFRIMWAVHNGTRPPLIKNLPKPIESLMTRCWSKDPSQRPSMEEIVKIMTHLMRYFPGADEPLQYPCQYSDEGQSNSATSTGSFMDIASTNTSNKSDTNMEQVPATNDTIKRLESKLLKNQAKQQSESGRLSLGASRGSSVESLPPTSEGKRMSADMSEIEARIAATTAYSKPKRGHRKTASFGNILDVPEIVISGNGQPRRRSIQDLTVTGTEPGQVSSRSSSPSVRMITTSGPTSEKPTRSHPWTPDDSTDTNGSDNSIPMAYLTLDHQLQPLAPCPNSKESMAVFEQHCKMAQEYMKVQTEIALLLQRKQELVAELDQDEKDQQNTSRLVQEHKKLLDENKSLSTYYQQCKKQLEVIRSQQQKRQGTS
chain 2: MAAASVTPPGSLELLQPGFSKTLLGTKLEAKYLCSACRNVLRRPFQAQCGHRYCSFCLASILSSGPQNCAACVHEGIYEEGISILESSSAFPDNAARREVESLPAVCPSDGCTWKGTLKEYESCHEGRCPLMLTECPACKGLVRLGEKERHLEHECPERSLSCRHCRAPCCGADVKAHHEVCPKFPLTCDGCGKKKIPREKFQDHVKTCGKCRVPCRFHAIGCLETVEGEKQQEHEVQWLREHLAMLLSSVLEAKPLLGDQSHAGSELLQRCESLEKKTATFENIVCVLNREVERVAMTAEACSRQHRLDQDKIEALSSKVQQLERSIGLKDLAMADLEQKVLEMEASTYDGVFIWKISDFARKRQEAVAGRIPAIFSPAFYTSRYGYKMCLRIYLNGDGTGRGTHLSLFFVVMKGPNDALLRWPFNQKVTLMLLDQNNREHVIDAFRPDVTSSSFQRPVNDMNIASGCPLFCPVSKMEAKNSYVRDDAIFIKAIVDLTGL

Variants of: B1
Assay: co-immunoprecipitation (anti-HA beads), IB quantified
Settings: with Flag‐TRAF2; HEK293T cells cotransfected; mean+/-SD, n = 3; read off a plot
A response of 0.25 was found for chain 1 H154A M196A in this work.

From publication PMC12713080
